Assay results: the supplement of paper PMC9170038

Tested on: MS2 coat protein
Experiment: apparent KD of MS2 coat protein; designed switch direction (-1 OFF switch, 1 ON switch): -1; higher = weaker reporter binding
Method in brief: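 Three titration conditions were used: no input, 200 uM small-molecule ligand, and an oligonucleotide input. In each, SNAP-549-labelled MS2 coat protein was raised from 0.7 or 1.5 nM, doubling, to 3 µM over designed RNA switches transcribed on Illumina chips by stalled E. coli RNA polymerase. Curve fits of normalised cluster fluorescence gave values whose per-design median over clusters is the apparent KD.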

[1] = Eterna round: R95, input ligand: FMN 200 uM
[2] = Eterna round: R95, input ligand: microRNA oligo, concentration not stated
[3] = Eterna round: R95, input ligand: none
[4] = input ligand: microRNA oligo, concentration not stated

| Sequence | apparent KD of MS2 coat protein (input ligand: FMN 200 uM) [nM] | apparent KD of MS2 coat protein (input ligand: none) [nM] | apparent KD of MS2 coat protein [1] [nM] | apparent KD of MS2 coat protein [2] [nM] | apparent KD of MS2 coat protein [3] [nM] | apparent KD of MS2 coat protein [4] [nM] |
| --- | --- | --- | --- | --- | --- | --- |
| ACAUUACAUGAGGAUCACCCAUGUGAGGAUAUGGAGCGGUAGUGUCCUGUCGCGUACACCAGAAGGCGCGGGUG [1st #48] (Eterna round: R97, puzzle: Exclusion 1) | 282 | 90.6 |  |  |  |  |
| CAUGAUCUUCGGAUCAUGUACAUGAGGAUCACCCAUGUUACGAGCAGAUUUUCAUACAAGCUUUUUGCUCGUCUUAU [Sensor v3 - Turn-off variant 1 - 31] (puzzle: Sensor v3, turn-off variant 1) |  |  | 27.6 | 67.3 | 28.7 |  |
| CAGUACUGAGGAUAUACAUGAGGAUCACCCAUGUGUCUAAAGUAGGAUACUACUAUUAGUAGAAGGCAGUACUG [Fiskers Ex 3 828 mod 20] (puzzle: Exclusion 3) |  |  |  | 11.3 |  |  |
| GGAAGGUGAGGAUAUACUAAGCCGGAAACGGCAGGUGAGAGACAUGAGGAUCACCCAUGUAGAAGGCACGGAGA [AK-MS2ROC-r4-exclusion2-17] (Eterna round: R97, puzzle: Exclusion 2) | 291 | 85.5 |  |  |  |  |
| CUCCUACAUGAGGAUCACCCAUGUCAGGAUAUCUCAGUGGCACCUAAAGGCGCCACCCAGAGAAGGGACGUGCA [Soistiis] (puzzle: Exclusion 1) |  |  |  | 10.6 |  |  |
| GAAAACGUAGGAUAUUAAUACUCAGACAUGAGGAUCACCCAUGUUUGGUGGGUCGGAGAAUGAGAAGGGCGAUGAA [EX5 #14] (Eterna round: R97, puzzle: Exclusion 5) | 82.3 | 89.7 |  |  |  |  |
| GGUACUAACACGAGAGUGUUAGUACUAUAAGCUUGUGUUACAUGAGGAUCACCCAUGUCCUCAUAAGCUCGUCUUGA [Mat - Sensor v3 - Turn-off var 2 - D90] (puzzle: Sensor v3, turn-off variant 2) |  |  | 33 | 974 | 36.2 |  |
| AAGAAACAUGAGGAUCACCCAUGUGAGGAUAUGGCCCGCCCGGCGUGAGCUGGUUUUGUCAGAAGGCACAAAGG [salish99_ex1_r4_017] (Eterna round: R97, puzzle: Exclusion 1) | 104 | 41.9 |  |  |  |  |
| AUAAUACAUGUAGGAUAUGCGUGGCGAAGCUAUGCAGAAGGACAUGAGGAUCACCCAUGUUCUAGCGUCUGCGUACAGAUGCUA [JL eng1 1.35 mod 1] (Eterna round: R96, puzzle: Exclusion NG 1) | 37.3 | 18.1 |  |  |  | 14 |
| GGGUGUGAAGGAUAUACAUGAGGAUCACCCAUGUGAGAGGAGGAGGUUGAGGAGGUUGGUAGAAGGUCAGGAGG [JR_Exclusion3_Sub011] (puzzle: Exclusion 3) |  |  |  | 120 |  |  |
| GAAUAGCAAGCGAGAUCCCACAUGAGGAUCACCCAUGUGCUCGUCUUAUAAAGUACUGUGACGAUAGUCACGGUACA [Mat - Sensor, turn-off var - Eli Mod - D13] (Eterna round: R97, puzzle: Sensor, turn-off variant 1) | 16.5 | 14.9 |  |  |  |  |
| AAAACAAGCAUAAGAUCCCACAUGAGGAUCACCCAUGUGCUCGUCUUAUAAAAGGUUUCGACGAAAACGUCGAGACC [Eli 91 v30] (Eterna round: R97, puzzle: Sensor, turn-off variant 1) | 29.6 | 29.6 |  |  |  |  |
| AACAUGUGAGGAUAUUAUCACAAAGGCGUAGAAAUACGCGAUAAGAAGGCACAUGAGGAUCACCCAUGUUCCGA [EX4 A.24] (Eterna round: R97, puzzle: Exclusion 4) | 66.8 | 17.5 |  |  |  |  |
| CCGAGGUAGCGGUCCUAUGACAUGAGGAUCACCCAUGUACCUCGCUACGAGCUUUUUGCUCGUCAUAUAAUUCUCGG [Mat - Sensor v3 - turn-off var 1 - JL Mod - D30] (Eterna round: R96, puzzle: Sensor v3, turn-off variant 1) | 56.8 | 61.3 |  |  |  | 49.7 |
| AAUAGGACAGGAUAUCCGGAGUCGAACAUGAGGAUCACCCAUGUGAUGAGGAUGUUCGCUGGAGAAGGGUCUGGCU [Atisdiis] (puzzle: Exclusion 5) |  |  | 83.9 | 124 | 176 |  |
| CCAGCGUAUGUGAGGAUAUGCUGGUCCUUGGAUCAGCAGAAGGCACAUGAGGAUCACCCAUGUGGUGUCGUUGG [JL bmx4 3.45] (puzzle: Brourd's mod of Exclusion 4) |  |  |  | 149 |  |  |
| AAAAUGUCAGGAUAUACGAAACAAAACAAAACAAAACAAAAGUAGAAGGGACAUGAGGAUCACCCAUGUAAGAA [Exclusion 4 #2] (puzzle: Exclusion 4) |  |  | 49.6 | 24.1 | 32.5 |  |
| UCUUACUGAGGAUAUACAUAGAUUUACAUGAGGAUCACCCAUGUUCCUCUAUGUAUAAAUGUAGAAGGCAGAAGAA [Mat - Exclusion 5 - JL Mod - D53] (Eterna round: R97, puzzle: Exclusion 5) | 82.6 | 17.8 |  |  |  |  |

| Sequence | apparent KD of MS2 coat protein (input ligand: FMN 200 uM) [nM] | apparent KD of MS2 coat protein (input ligand: none) [nM] | apparent KD of MS2 coat protein [1] [nM] | apparent KD of MS2 coat protein [2] [nM] | apparent KD of MS2 coat protein [3] [nM] | apparent KD of MS2 coat protein [4] [nM] |
| --- | --- | --- | --- | --- | --- | --- |
| ACCUUACUUGAGGAUCACCCAAGUCAGGAUAUACACCAGAAUAAAUCCCAGCCCUGGCGUAGAAGGGACGGGUG [Soesma] (Eterna round: R97, puzzle: Exclusion 1) | 23.9 | 21.8 |  |  |  |  |
| AAAGGGUCAGGAUAUCCUGUGAAGAAGAAGUUGUUGUCGCGGGAGAAGGGACAUGAGGAUCACCCAUGUAGAGC [A Simple Submission] (Eterna round: R97, puzzle: Exclusion 4) | 52.9 | 53.6 |  |  |  |  |
| CAGGGUAGAGGAUAUACGUAGGUACAGAUCCGUGUGAUCCUACAUGAGGAUCACCCAUGUAGAAGGCUAGCCUG [LRO-Excl2-06] (puzzle: Exclusion 2) |  |  |  | 332 |  |  |
| AGCUAGUCAGGAUAUUCUGUUAAUUACAUGAGGAUCACCCAUGUGAAUGGACAAGGGUGUGAAGAAGGGACUAGCG [Omei Ex5 A15] (Eterna round: R97, puzzle: Exclusion 5) | 124 | 248 |  |  |  |  |
| UUCCUCACUUCUUUGUCUCACAUGAGGAUCACCCAUGUAAUAUAGGAUAUGCAUAGUAUUUCUAUGCAGAAGGAUAUUAGUUUU [JR_ExcNG3_Sub087] (Eterna round: R96, puzzle: Exclusion NG 3) | 131 | 34.7 |  |  |  | 27.3 |
| CAGUACUGAGGAUAUACAUGAGGAUCACCCAUGUCCCAAAAGUAGGAUACUACUAUUAGUAGAAGGCAGUACUG [Fiskers Ex 3 828 mod 25] (Eterna round: R96, puzzle: Exclusion 3) | 498 | 46.1 |  |  |  | 43.2 |
| ACAUGAGGAUCACCCAUGUAAACAUAAUGGCUCAUGUAGAGUCAGGAUAUGCGUGGCGAACUCGCGCAGAAGGGACAAGACUGG [Deportation 23 - Jieux - Exclusion NG 3] (Eterna round: R96, puzzle: Exclusion NG 3) | 26.7 | 26.4 |  |  |  | 20.6 |
| GUGCCGCGAGGAUAUACAGACGGGUCCAGUGCGUGUCUCGGACUUGAGGAUCACCCAAGUAGAAGGCGUCUCAG [salish99_ex2_r4_614] (Eterna round: R97, puzzle: Exclusion 2) | 16.7 | 31 |  |  |  |  |
| ACAUGAGGAUCACCCAUGUCAGGCAGGUCCACUCCGGCUGUUGAGGAUAUAGCCCGGUAUCCGCGCUAGAAGGUGAGGGCCGGC [Aenatbe mod 26] (Eterna round: R96, puzzle: Exclusion NG 3) | 15.3 | 21.6 |  |  |  | 15.7 |
| ACUUAUAGAGGAUAUACAGAAUAUUACAUGAGGAUCACCCAUGUUCUUCAAUGUAUAUAUGUAGAAGGCUAAGGUU [Mat - Exclusion 5 - JL Mod - D7] (Eterna round: R97, puzzle: Exclusion 5) | 286 | 131 |  |  |  |  |
| AUUUUAACAUAGGAUAUCGAAUUUAUUAUUUAACGAGAAGGAUGAACAUGAGGAUCACCCAUGUGGUAUCAUGA [Mat - Exclusion 6 - JL Mod - D21] (puzzle: Exclusion 6) |  |  | 72.8 | 40.6 | 45.9 |  |
| AUCCUUAACAAGGAUAUCGGGCGGGAAAUUGUUUGAGAAGGUGUAACAUGAGGAUCACCCAUGUUAAACGUGGA [-18.8, -18.6 kcal, A 32%] (Eterna round: R97, puzzle: Exclusion 6) | 22.3 | 23.4 |  |  |  |  |
| UUUUAACAUGAGGAUCACCCAUGUGAGGAUAUCGAAAUUUAUAUUUAUAUUAAUAAUACGAGAAGGCACAUUUU [JMF 78] (puzzle: Exclusion 1) |  |  |  | 57 |  |  |
| UUUAAUUUUUUUUUUUUACAAGCUUUUUGCUCGUCUUAUACAUGAGGAUCACCCAUGUGGGUAAAAGGUAAAUUAUC [JMF 63] (puzzle: Sensor v3, turn-off variant 2) |  |  | 15.3 | 32.8 | 17.3 |  |
| GUAUCGUGAGGAUAUCUAGACUGACUUAGUACAUGUCAGCUGGAGAAGGCACAUGAGGAUCACCCAUGUGAUUA (puzzle: Exclusion 4) |  |  |  | 22.2 |  |  |
| AGGAAACAUGAGGAUCACCCAUGUGAGGAUAUGAAAAAGAAAAGAAAAGAAAGAAGAAUCAGAAGGCACAAAGG [Mat - Mod of Hog D1] (puzzle: Exclusion 1) |  |  | 52.9 | 32 | 45.9 |  |
| CGUAUGUGAGGAUAUGACAAUGGUAUCUUCGGAUACCAUUGUCAGAAGGAACAUGAGGAUCACCCAUGUAGAUC (Eterna round: R96, puzzle: Exclusion 4) | 161 | 54.5 |  |  |  | 43.1 |
